What follows are sequences tested on T1, XisF4 (native excisionase) (Pseudomonas aeruginosa PAO1), ORF:74e9b1d3 (assay: EMSA).
T1 sequence: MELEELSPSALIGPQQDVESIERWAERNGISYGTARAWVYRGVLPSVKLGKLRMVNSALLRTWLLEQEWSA

Row | Sequence | binding
1 | CGCGCAGACTGTATCGAAGTATTTCCGACGCCTGGCGTTCTGTGATCGATTCGGCTCGGTTGGAGTGCGCTGCCGCACGCTTTACAGCCGGACGGAGCGGGGCACCGGATCTACTGCAAAAGCTGATAGTTGTCTTCCCGGGTGACGGCGTTGCACGGTCCTGCGGCGTGCAACCCGGCCTGGGCGAAATACCGGCGGAGCGGACCAGGCTATCCCGTCGGAGGCGATGTCGCCGGGCTGCTGGCTTTCAAGGTTTCCCTTCGATGACCAGGAGCTACCCATG (double strand) [lasA promoter] | binds
2 | GCTCATTCCGTCACTATTCGTGGCATTAGCCATACGCAGCTAGAGAAATAATTACCCTGGAGAAATTATTTCCCCAAAGCCACGTCAGGGCAACTATTTCCCCGGAATAAATTTCTATATGAGCACGTCAGCCGATAGAGCAAGACTATTAATCAAGAAAATCGGCCCCAAAAAGGTCAGCCTTCACGGGGGCGATTACGAGAGATGGAAAAGCGTCAGCAAAGGCGCGATTCGCGTGAGCACGGAAGAAATCGACGTCCTAGTAAAAATTTTCCCTAATTACGCATTATGGATTGCAAG (double strand) [xisF4 promoter] | binds
3 | CGGTCGCCTTGTTCATGAGAAAAGCCTTTTAAAACAGTGAGTTGCGCAATAATTTCAGCCGTACCTCTTTCGAGGTAGGGGCGCGCATCTAGGCACGGAACGGCCGGTATTTCATTGATTCCTATCAAATTTGCATAGGAACACCTTCCCTAGGCTCTCGCTGAACGCTGTCCGTGCAGAGAGTTTAGCC (double strand) [narL promoter] | binds
4 | AGCTTTCATGAATCTCTCCGTTGATTATGTATAGGCCTAACGCCTGAACCTCAACAAGCACTTACCATGCCAAATATCAAACCGCGCCACGATCAAGGAAACTGGGTTCCTTTCTCGATGAGAGTCAAACTTAAAACGGACAGGATGTGACATTTTTTGACAGCTGGATTTCCTCGATTTGGCAGCCCCTGTTATCTGCGTTATAAGGCACCTCAATAGCCCTTCTGCGATTCCTTCCCCATG (double strand) [pilA promoter] | binds

From publication PMC11307329
